The source of these data is patent publication US20200277373A1 (DENALI THERAPEUTICS, published 2020).

Usually Kd stands for the free concentration of one partner at which half of the binding sites on the other are occupied at equilibrium, for simple one-to-one binding. Read a high Kd as a looser complex. One may read the koff as a measure of how fast the partners let go of each other. A low value points to a long-lived complex. The kon is the second-order rate constant of association. Broadly, the EC50 is the concentration giving half of the maximal effect.

For test [1], the target named is T1, Mouse TREM2, on cells (mouse, UniProt Q99NH8 19-227).
T1 construct: whole, on cells; also called mouse TREM2 HEK
T1 sequence (looked up): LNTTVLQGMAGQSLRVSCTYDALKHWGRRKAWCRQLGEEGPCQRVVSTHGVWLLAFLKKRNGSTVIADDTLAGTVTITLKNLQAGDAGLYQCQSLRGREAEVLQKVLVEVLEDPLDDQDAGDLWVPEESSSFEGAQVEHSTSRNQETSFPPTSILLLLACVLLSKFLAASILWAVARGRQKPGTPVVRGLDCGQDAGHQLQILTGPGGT
The test is described as follows: flow cytometry, 293F cells overexpressing mouse TREM2. As to the method:
(§1) After labeling, cells were washed twice with 1×PBS. […] Mixed cell lines were seeded at 300,000 cells per well in a 96-well round-bottom and incubated 20 minutes at room temperature. After incubation, cells were centrifuged and test anti-TREM2 antibodies were added, then incubated for 45 minutes on ice. After incubation, cells were centrifuged and washed with FACS buffer three times.
(§2) The data in Table 2 is presented as fold over binding (FOB).

In test [2] the target is T2, Human TREM2 protein, on cells (human, UniProt Q9NZC2 19-230).
T2 sequence: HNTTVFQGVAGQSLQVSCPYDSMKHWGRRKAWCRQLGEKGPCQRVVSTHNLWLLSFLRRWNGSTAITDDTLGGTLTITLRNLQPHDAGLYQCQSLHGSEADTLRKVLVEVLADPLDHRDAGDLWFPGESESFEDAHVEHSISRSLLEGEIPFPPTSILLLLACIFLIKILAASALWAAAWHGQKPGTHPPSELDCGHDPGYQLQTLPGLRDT
Kind of test: cell-based or functional assay.

For test [3], the target named is T3, His-tagged TREM2 ECD (ecto domain residues 19-172 of human TREM2, C-terminal 6X-His tag) (human, UniProt Q9NZC2 19-172).
T3 construct: Made in Expi293F cells; the mouse Ig kappa secretion signal is not part of the mature protein; Biotinylated for the Octet binning; also called TREM2-His; TREM2-His protein
T3 sequence: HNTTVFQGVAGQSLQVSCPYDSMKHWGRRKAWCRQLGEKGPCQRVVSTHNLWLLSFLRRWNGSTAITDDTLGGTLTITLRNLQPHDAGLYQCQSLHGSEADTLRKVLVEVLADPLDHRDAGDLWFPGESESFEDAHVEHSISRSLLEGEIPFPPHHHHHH
Kind of test: Biacore T200, antibody captured, antigen injected, 1:1 model. As to the method: To measure TfR binding, anti-human-Fab was immobilized on a CM5 chip, and the TREM2/TfR-binding protein was captured. Full-length human TfR or human TfR apical domain at serial dilution (e.g., concentrations of 1-1000 nM) was flowed over the chip (180 second association time) and then allowed to dissociate. Fitting was performed using a 1:1 binding model. To measure TREM2 binding, anti-human-Fc antibody was immobilized on a CM5 chip, and the TREM2/TfR-binding protein was captured. A range of concentrations of recombinant TREM2-His protein were flowed over the chip, and allowed to associate and dissociate. The resulting sensograms were fitted using a 1:1 Langmuir model to estimate kₒₙ and koff (FIG. 10).
Biacore Series S CM5 sensor chips were immobilized with a mixture of two monoclonal mouse anti-Fab antibodies (Human Fab capture kit from GE Healthcare). Serial 3-fold dilutions of each antigen were injected at a flow rate of 30 μL/min. The binding of the antigens to captured antibody was monitored for 30 to 180 seconds and then their dissociation was monitored for 30-300 seconds in HBS-EP+running buffer (GE, # BR100669). Binding response was corrected by subtracting the RU from a blank flow cell. A 1:1 Languir model of simultaneous fitting of kₒₙ and koff was used for kinetics analysis.
In general terms: In SPR one partner is held on a chip, and binding of the other changes the refractive index at the surface.

Test [4] deals with T2, Human TREM2 protein, on cells. The test is described as follows: flow cytometry, HEK293 cells overexpressing human TREM2. As to the method:
as §1, §2
For orientation: In flow cytometry, cells or beads pass a laser one at a time.

Test [5] concerns the target T1, Mouse TREM2, on cells. Kind of test: flow cytometry titration on mTREM2-293F cells.
Text: (§3) FIGS. 1A-1D. […] (A) Anti-TREM2 antibodies were screened for binding to HEK cells expressing human TREM2 (unlabeled) and mouse TREM2 HEK expressing cells (labeled with NucBlue). Antibody binding was detected with a secondary anti-mouse multiple adsorption antibody conjugated to APC. […] (B) Parental HEK-GFP cells were used as a negative control to rule out non-specific binding. (C) Anti-TREM2 antibody surface binding dose response in hTREM2-HEK cells. Anti-TREM2 antibodies were titrated for binding to HEK cells expressing human TREM2. Antibody binding was detected with a secondary anti-mouse multiple adsorption antibody conjugated to APC. […] Mouse TREM2 HEK cells were titrated for binding as in (C).
as §1

In test [6] the target is T2, Human TREM2 protein, on cells. The test is described as follows: cell-based or functional assay. The source holds these as a separate data set.
Test [7] has as its target T3, His-tagged TREM2 ECD (ecto domain …). The test is described as follows: Table 1 Kd; Biacore, TREM2-His analyte (presumed). As to the method: Anti-murine Fc antibody (obtained from GE Healthcare) was immobilized on the surface of a CM5 chip (obtained from GE Healthcare) through amine-coupling to reach about 6,000 to 8,000 response units (RU). The surface was activated by injection of a mixture of 1-ethyl-3-(3-dimethylaminopropyl)-carbodiimide (EDC) and N-hydroxysuccinimide (NHS), both obtained from GE Healthcare, for 7 minutes. Anti-murine Fc antibody was diluted in sodium acetate (pH 5.0) at 25 μg/mL and injected for 10 minutes at a flow rate of 5 μL/minute, followed by injection of ethanolamine (obtained from GE Healthcare) for 7 minutes.
Purified anti-TREM2 hybridoma (20 μg/mL) was captured to reach 1000-1500 RU. A range of serially-diluted TREM2-His protein (e.g., 3.4 nM to 300 nM) was injected at a flow rate of 30 μL/minute, using either single-cycle kinetics methods. Sensorgrams were fitted using a 1:1 Langmuir model to estimate kₒₙ and koff.

Test [8] concerns the target T2, Human TREM2 protein, on cells. Kind of test: cell binding, human TREM2-expressing HEK cells, flow cytometry titration.
Test [9] has the same target. The test is described as follows: flow cytometry titration on hTREM2-HEK cells.
Text: as §3, §1

Test [10] addresses T4, Human TREM2 synthetic 9-mer peptide DLWFPGESE (human).
T4 construct: also called TREM2 peptide; TREM2 9-mer peptide
T4 peptide: DLWFPGESE
Kind of test: X-ray co-crystal structure. An excerpt: The synthetic 9-mer peptide […] (SEQ ID NO:335), corresponding to amino acid residues 140-148 of human TREM2 (according to UniProtKB entry TREM2_HUMAN) was used for co-crystallization.

B1: RS9.F6 (antibody, V domains shown)
VH: QVQLQQPGAELVKPGASVKLSCKASGYTFTSYWMHWVKQSPGRGLEWIGRSDPTTGGTNYNEKFKTKATLTVDKPSSTAYMQLSSLTSDDSAVYYCVRTSGTGDYWGQGTSLTVSS
VL: DVVMTQTPLSLPVSLGDQASISCRSSQSLVHNNGNTFLHWYLQKPGQSPKLLIYKVSNRFSGVPDRFSGSGSGTDFTLKISRVEAEDLGVYFCSQTTHVPPTFGGGTKLEIK
In the case of B1, the “FOB (fold over binding)” value with Mouse TREM2, on cells [1] stood at 73 fold; in [4] it was 13.2 fold. For the same molecule, the “STREM2 decrease (nM), EC50” value in test [2] came to 0.3 nM. Also, in test [2], the “pSyk (nM), EC50” value is 15.9 nM. For the same molecule, the values for the Kd in test [3] and in [7] were 2.3 nM and 0.733 nM, respectively. For the same molecule, the koff in test [3] came to 0.00034 s⁻¹. The molecule also registered a kon in [3] of 150000 M⁻¹ s⁻¹. The EC50 with Mouse TREM2, on cells [5] was under 8 nM; in [8], 1.62 nM; in test [9], under 2 nM. Further, the “pSyk FOB (30 nM Ab)” value in test [6] came out at 8.49 fold over background.

B2: F6 Fab (Fab fragment of anti-TREM2 antibody RS9.F6) (Fab, V domains shown)
VH: B1 VH
VL: B1 VL
notes: Fab expressed in Expi-293 cells; also called TREM2 Fab
Regarding B2, in test [10], the binding result was “binds”.
